Consider four molecules from patent US20210347873A1 (SHANGHAI PHARMAEXPLORER, published 2021).

Usually EC50 (read off the curve) stands for the midpoint of the concentration-response curve. A low value points to a more potent agent.

The target of assay [1] is T1, human BLyS (full length, arginine 132 mutated to histidine) on CHO-K1 cells (human, UniProt Q9Y275 1-285).
T1 construct: also called hBLyS; CHO-K1 hBLyS
Briefly: flow cytometry (FACS) on CHO-K1 hBLyS cells, Alexa 488 secondary antibody. As to the method:
(§1) The medium was aspirated completely, and the cells were rinsed once with PBS buffer (purchased from Invitrogen) and then treated with cell dispersion solution (TrypLE™ Express Enzyme, purchased from Life technology) and collected. The detailed steps are as follows: the cells were rinsed once with PBS buffer, after counting, the cells were diluted to 2×10⁶ cells/ml with PBS buffer, blocked with 2% (w/w) fetal bovine serum and incubated on ice for 30 minutes. 200 μL of which per well was aliquoted into a 96-well FACS plate and centrifuged at 2000 rpm at 4° C., then each 100 μL of the lead antibodies obtained from Embodiment 1 and 2 were aliquoted into each well and incubated on ice for 1 hour. […] After centrifuged and rinsed 3 times with FACS buffer, cells were suspended with 200 μL of FACS buffer and the results were detected and analyzed by FACS (FACS Calibur, purchased from BD). It was shown in Tables 12-13 that the lead antibody could bind to human BLyS protein on the cell surface and the lead antibody could cross-react with cynomolgus BLyS. The data in the table is MFI, the average fluorescence intensity of the cell population.
(In general: In flow cytometry, cells or beads pass a laser one at a time.)

The target in assay [2] is T2, cynomolgus BLyS (full length, arginine 132 mutated to histidine) on CHO-K1 cells (cynomolgus, UniProt Q9Y275 1-285 (human entry)).
T2 construct: also called cyno BLyS; CHO-K1 cynoBLyS
T2 chain: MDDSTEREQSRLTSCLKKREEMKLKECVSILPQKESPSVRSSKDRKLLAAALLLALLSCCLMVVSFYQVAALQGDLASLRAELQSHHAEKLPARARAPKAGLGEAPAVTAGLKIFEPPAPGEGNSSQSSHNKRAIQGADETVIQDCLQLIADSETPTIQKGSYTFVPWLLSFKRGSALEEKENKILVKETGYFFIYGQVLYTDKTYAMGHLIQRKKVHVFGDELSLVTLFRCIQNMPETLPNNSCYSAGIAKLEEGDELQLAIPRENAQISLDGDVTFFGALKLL
Briefly: flow cytometry (FACS) on CHO-K1 cynoBLyS cells, Alexa 488 secondary antibody. The method, then: as §1

Assay [3] concerns the target T3, human BLyS (full length, arginine to histidine at position 132) on CHO-K1 cells (human, UniProt Q9Y275 1-285).
T3 construct: also called hBLyS; CHO-K1 hBLyS
Briefly: flow cytometry, CHO-K1 hBLyS cells, antibody 2.67 nM.

In assay [4] the target is T4, cynomolgus BLyS (full length, arginine to histidine at position 132) on CHO-K1 cells (cynomolgus, UniProt Q9Y275 1-285 (human entry)).
T4 construct: also called cyno BLyS; CHO-K1 cynoBLyS
T4 chain: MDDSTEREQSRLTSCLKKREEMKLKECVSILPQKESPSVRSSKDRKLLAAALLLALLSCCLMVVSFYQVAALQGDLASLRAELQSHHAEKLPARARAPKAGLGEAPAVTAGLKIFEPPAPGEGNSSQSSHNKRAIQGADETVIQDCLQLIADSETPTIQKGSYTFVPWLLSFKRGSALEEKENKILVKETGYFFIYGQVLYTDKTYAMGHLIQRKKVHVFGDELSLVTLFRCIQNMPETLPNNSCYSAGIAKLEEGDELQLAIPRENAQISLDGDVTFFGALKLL
The assay can be described thus: flow cytometry, CHO-K1 cynoBLyS cells, antibody 66.7 nM.

In assay [5] the target is T4, cynomolgus BLyS (full length, arginine …). Briefly: flow cytometry, CHO-K1 cynoBLyS cells, antibody 0.534 nM.
The target in assay [6] is T3, human BLyS (full length, arginine to …). Briefly: flow cytometry, CHO-K1 hBLyS cells, antibody 66.7 nM.
Assay [7] shares this target. The assay can be described thus: flow cytometry, CHO-K1 hBLyS cells, antibody 0 nM.
Assay [8] has the same target. The assay can be described thus: flow cytometry, CHO-K1 hBLyS cells, antibody 0.0213 nM.
Assay [9] concerns the target hBLyS-ECD (His-tagged extracellular domain of human BLyS protein, Ala134-Leu285) (human, UniProt Q9Y275 134-285). The assay can be described thus: cell-based or functional assay.
For assay [10], the target named is T4, cynomolgus BLyS (full length, arginine …). The assay can be described thus: flow cytometry, CHO-K1 cynoBLyS cells, antibody 0.107 nM.
For assay [11] the target is unchanged. The assay can be described thus: flow cytometry, CHO-K1 cynoBLyS cells, antibody 0.00427 nM.
For assay [12] the target is unchanged. Briefly: flow cytometry, CHO-K1 cynoBLyS cells, antibody 13.3 nM.
Assay [13] addresses T3, human BLyS (full length, arginine to …). Briefly: flow cytometry, CHO-K1 hBLyS cells, antibody 13.3 nM.
The target is the same in assay [14]. The assay can be described thus: flow cytometry, CHO-K1 hBLyS cells, antibody 0.534 nM.
Assay [15] shares this target. Briefly: flow cytometry, CHO-K1 hBLyS cells, antibody 0.107 nM.
Assay [16] has as its target T4, cynomolgus BLyS (full length, arginine …). The assay can be described thus: flow cytometry, CHO-K1 cynoBLyS cells, antibody 0 nM.
For a further assay, the target named is mouse BLyS protein (mouse, UniProt Q9WU72 69-309). The assay can be described thus: cell-based or functional assay.
Sequence of mouse BLyS protein (Q9WU72 69-309): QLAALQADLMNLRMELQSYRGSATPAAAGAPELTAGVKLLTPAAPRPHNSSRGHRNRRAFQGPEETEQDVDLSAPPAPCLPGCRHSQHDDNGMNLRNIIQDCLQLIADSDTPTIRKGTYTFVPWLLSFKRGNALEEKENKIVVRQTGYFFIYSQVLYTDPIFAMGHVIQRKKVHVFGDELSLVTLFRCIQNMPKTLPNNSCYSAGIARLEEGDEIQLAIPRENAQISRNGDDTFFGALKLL
Assay [17] has as its target T3, human BLyS (full length, arginine to …). The assay can be described thus: flow cytometry, CHO-K1 hBLyS cells, antibody 0.00427 nM.
The target of assay [18] is T4, cynomolgus BLyS (full length, arginine …). The assay can be described thus: flow cytometry, CHO-K1 cynoBLyS cells, antibody 2.67 nM.
For assay [19] the target is unchanged. The assay can be described thus: flow cytometry, CHO-K1 cynoBLyS cells, antibody 0.0213 nM.

T1 sequence (Q9Y275 other isoform, or with tags, fused parts or gaps limits assumed, change not shown): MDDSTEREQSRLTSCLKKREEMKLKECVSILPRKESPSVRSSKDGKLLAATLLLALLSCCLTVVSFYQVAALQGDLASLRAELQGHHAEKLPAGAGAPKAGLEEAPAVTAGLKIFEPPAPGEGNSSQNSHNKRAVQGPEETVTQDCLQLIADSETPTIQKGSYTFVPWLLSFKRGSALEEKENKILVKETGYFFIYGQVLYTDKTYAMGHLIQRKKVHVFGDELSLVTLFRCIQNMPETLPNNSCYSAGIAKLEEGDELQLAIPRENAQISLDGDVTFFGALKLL

B1: 20D1B6E9E5 (antibody, V domains shown)
VH: EVQLQQSVAELVRPGASVKLSCTASDFNIKNTYIHWVKQRPEQGLEWIGRIDPVNGNTKYAPKFQDKATIIVDTYSNTAYLQLSSLASEDTAVYYCARWPITTIVATDWYFDVWGTGTTVTVSS
VL: DVLMTQTQLALPVRLGEQASISCRSSQSIVNSNGNTYLEWYLQKPGQSPKLLIYKVSNRFSGVPDRFSGSGSGTDFTLKISRVEAEDLGVYYCFQGSHVPWTFGGGTKLEIK
notes: Mouse hybridoma antibody purified on Protein G
In the case of B1, the “EC50 (read off the curve)” value in [1] and in assay [2] was around 0.2 nM throughout.

B2: 93C6F10D3 (antibody, V domains shown)
VH: EVQLVESGGGLVTPGGSLKLSCVASGFAFSTYGMSWVRQTPERRLEWVAYISGGGGSIYYPDSVKGRFTISRDNAKNILYLQMSSLKSEDTAMYHCTRHPDLLLRYDYALDHWGQGTSVTVSS
VL: DIQMTQSPASLSASVGETVTITCRASENIHIYLAWYQQKQGKSPQLLVYNGKTLADGVPSRFSGSGSGTQYSLKINTLQPEDFGNYYCQHFWNSTWTFGGGTKLEIK
notes: Mouse hybridoma monoclonal antibody purified on Protein G
For the molecule B2, the MFI in assay [3] turned out to be 317 MFI; in [4] it was 785 MFI; in [5], 706 MFI; in [6], 392 MFI; in [7], 31.6 MFI; in [8], 76.6 MFI. Besides, the MFI in assay [10] is 308 MFI; in assay [11], 46.9 MFI; in assay [12] it was 714 MFI; in [13], 327 MFI; in [14] it was 306 MFI; in assay [15], 175 MFI. Further, the MFI was determined as 21.9 MFI in [16], 44.9 MFI in assay [17], 729 MFI in [18] and 112 MFI in [19]. Further, the “mouse B lymphocyte proliferation (OD450 nm), antibody 0 nM” value worked out at 3030 OD450 nm in assay [9] and 2310 OD450 nm with mouse BLyS protein. Further, the “mouse B lymphocyte proliferation (OD450 nm), antibody 0.000256 nM” value in [9] stood at 3420 OD450 nm; with mouse BLyS protein, 2310 OD450 nm. In addition, the “mouse B lymphocyte proliferation (OD450 nm), antibody 0.00128 nM” value in assay [9] was found to be 3550 OD450 nm; with mouse BLyS protein it was 2290 OD450 nm. Also, the “mouse B lymphocyte proliferation (OD450 nm), antibody 0.0064 nM” value in assay [9] worked out at 4050 OD450 nm; with mouse BLyS protein, 2510 OD450 nm. Also, the figures for the “mouse B lymphocyte proliferation (OD450 nm), antibody 0.032 nM” value (in assay [9]; with mouse BLyS protein) were 4360 OD450 nm and 2540 OD450 nm, respectively. In addition, the “mouse B lymphocyte proliferation (OD450 nm), antibody 0.16 nM” value in assay [9] amounted to 3530 OD450 nm; with mouse BLyS protein, 2540 OD450 nm. Besides, the results for the “mouse B lymphocyte proliferation (OD450 nm), antibody 0.8 nM” value (in [9]; in the assay with mouse BLyS protein) were 799 OD450 nm and 2530 OD450 nm, respectively. Moreover, the figures for the “mouse B lymphocyte proliferation (OD450 nm), antibody 4 nM” value (in assay [9]; in the assay with mouse BLyS protein) were 514 OD450 nm and 2640 OD450 nm, respectively. The “mouse B lymphocyte proliferation (OD450 nm), antibody 20 nM” value in assay [9] was 466 OD450 nm; with mouse BLyS protein it was 2620 OD450 nm. Besides, the “mouse B lymphocyte proliferation (OD450 nm), antibody 100 nM” value in assay [9] came to 416 OD450 nm; in the assay with mouse BLyS protein, 2740 OD450 nm.

B3: 97E7B3F2 (antibody, V domains shown)
VH: EVQLQQSGPELVKSGASVKISCKASGYTFTDHKMHWVKQSHGKSLEWIGYISPYNGGTGYNQKFKSKVTLTVDISSSTAYMELRSLTSEDSAVYYCARWGFYDVMDSWGQGTSVTVSS
VL: DVLLTQTPLSLPVSLGDQASISCRSSQTIVHIIGDTYLEWYLQKPGQSPKLLIYKVSNRFSGVPDRFSGSGAGTDFTLKISRVEAEDLGVYYCFQGSHVPRTFGGGTKLEIK
notes: as for B2
As for B3, the MFI in assay [3] was 332 MFI; in assay [4] it was 770 MFI; in assay [5], 688 MFI; in [6], 406 MFI; in [7], 32.4 MFI; in [8], 78.7 MFI. Besides, the MFI amounted to 288 MFI in assay [10]; 53 MFI in assay [11]; 710 MFI in [12]; 349 MFI in assay [13]; 318 MFI in [14]; 174 MFI in assay [15]. The MFI in [16] amounted to 22.8 MFI; in assay [17], 48.2 MFI; in assay [18], 705 MFI; in assay [19] it was 112 MFI. Further, the “mouse B lymphocyte proliferation (OD450 nm), antibody 0 nM” value amounted to 2960 OD450 nm in assay [9] and 2130 OD450 nm with mouse BLyS protein. Also, the “mouse B lymphocyte proliferation (OD450 nm), antibody 0.000256 nM” value in [9] stood at 3380 OD450 nm; in the assay with mouse BLyS protein, 2200 OD450 nm. The “mouse B lymphocyte proliferation (OD450 nm), antibody 0.00128 nM” value amounted to 3760 OD450 nm in assay [9] and 2150 OD450 nm with mouse BLyS protein. Moreover, the “mouse B lymphocyte proliferation (OD450 nm), antibody 0.0064 nM” value in assay [9] came to 3770 OD450 nm; with mouse BLyS protein, 2310 OD450 nm. Besides, the figures for the “mouse B lymphocyte proliferation (OD450 nm), antibody 0.032 nM” value (in [9]; in the assay with mouse BLyS protein) were 2940 OD450 nm and 2580 OD450 nm, respectively. Further, the “mouse B lymphocyte proliferation (OD450 nm), antibody 0.16 nM” value stood at 2990 OD450 nm in [9] and 2360 OD450 nm with mouse BLyS protein. The results for the “mouse B lymphocyte proliferation (OD450 nm), antibody 0.8 nM” value (in [9]; in the assay with mouse BLyS protein) were 438 OD450 nm and 2310 OD450 nm, respectively. For the same molecule, the “mouse B lymphocyte proliferation (OD450 nm), antibody 4 nM” value turned out to be 364 OD450 nm in assay [9] and 2410 OD450 nm with mouse BLyS protein. Further, the “mouse B lymphocyte proliferation (OD450 nm), antibody 20 nM” value in [9] was found to be 383 OD450 nm; with mouse BLyS protein it was 2290 OD450 nm. In addition, the “mouse B lymphocyte proliferation (OD450 nm), antibody 100 nM” value in [9] stood at 377 OD450 nm; with mouse BLyS protein, 2310 OD450 nm.

B4: 97E7B3F2 (antibody, V domains shown)
VH: EVQLQQSGPELVKSGASVKISCKASGYTFTDHKMHWVKQSHGKSLEWIGYISPYNGGTGYNQKFKSKVTLTVDISSSTAYMELRSLTSEDSAVYYCARWGFYDVMDSWGQGTSVTVSS
VL: DVLLTQTPLSLPVSLGDQASISCRSSQTIVHIIGDTYLEWYLQKPGQSPKLLIYKVSNRFSGVPDRFSGSGAGTDFTLKISRVEAEDLGVYYCFQGSHVPRTFGGGTKLEIK
notes: as for B1
B4: the “EC50 (read off the curve)” value in [1] and in [2] was around 0.1 nM in each case.
